Laboratory results reported in US20250236644A1, “De Novo Designed Stimulus-responsive Two-state Hinge Proteins” (University of Washington, priority 2024, published 2025).
One block for each molecule: values may come before it.

What was measured:
[1] = tested on: TAMRA-cs074B; assay: Fluorescence polarization (FP) titration and kinetics, hinge vs TAMRA-cs074B; assay type: binding; settings: 1 nM peptide cs074B, varying hinge; FIG. 10
Protocol: (§1) All FP measurements were performed at 25° C. in 96-well plates (Corning 3686) using a Synergy Neo2™ plate reader and a 530/590 nm filter cube. The buffer for all FP measurements was 20 mM Tris-HCl, 100 mM NaCl, 0.05% v/v TWEEN20 at pH 8. Titrations were carried out in 96-well format, with 4 replicates per plate and 24 data points per titration (23 steps of two-fold serial dilution of hinges in the presence of TAMRA-labeled peptide at a constant concentration between 0.1 nM and 1 nM) with a final sample volume of 80 μl per well. Titration plates were incubated overnight at room temperature before measuring to ensure complete equilibration. The polarization signal S (as calculated by the Neo2™ software) was fitted to the equation
(§2) where fAB is the fraction of peptide that is bound, Atot is the absolute hinge concentration, Btot is the absolute peptide concentration, S0 is the baseline polarization of free peptide, and S1 is the change in polarization upon complex formation.
(§3) Fitting was performed using the scipy.optimize.curve_fit python function (53). Uncertainties for KD values are standard deviation errors calculated from the covariance matrix of the fits. In cases where the fitted KD was lower than the concentration of the labeled peptide Btot, we report the KD as KD<Btot.
(§4) For FP kinetics experiments a 2× peptide solution and 8 different 2× hinge solutions at different concentrations were prepared separately. 40 μl of each hinge solution were mixed with 40 μl peptide solution using a multichannel pipet and the measurement was started immediately after mixing. Polarization signals S at each concentration were fitted individually to the equation
(§5) where S0 is the amplitude, S1 is the polarization at equilibrium, kapp is the apparent rate constant, t is the time after start of the measurement, and t0 is the dead time between mixing and start of the measurement. For each hinge-peptide pair, the apparent rate constants for 8 different concentrations are fitted to the equation
(§6) where koff and kon are observed off- and on rates and Atot is the absolute hinge concentration.

[2] = tested on: TAMRA-cs201B; assay: FP titration and kinetics, hinge vs TAMRA-cs201B; assay type: binding; settings: for binding in FP titration: 1 nM peptide cs201B, varying hinge, FIG. 10
Sequence of TAMRA-cs201B (as listed by the source): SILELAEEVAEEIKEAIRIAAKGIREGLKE
Protocol: as §1, §2, §3, §4, §5, §6

[3] = tested on: TAMRA-cs221B; assay: FP titration and kinetics, hinge vs TAMRA-cs221B; assay type: binding; settings: for binding in FP titration: 1 nM peptide cs221B, varying hinge, FIG. 10; for peptide binding: FP; for kon: Effector TAMRA-cs221B, method FP
Sequence of TAMRA-cs221B (as listed by the source): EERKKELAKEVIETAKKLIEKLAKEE
Protocol: as §1, §2, §3, §4, §5, §6

[4] = tested on: TAMRA-js007B; assay: FP titration and kinetics, hinge vs TAMRA-js007B; assay type: binding
Sequence of TAMRA-js007B (as listed by the source): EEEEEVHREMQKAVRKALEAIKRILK
Protocol: as §1, §2
as §3, with “KD<Btot. […]” for “KD<Btot.”

[5] = tested on: original peptides fused to superfolder green fluorescent protein (sfGFP); assay: SEC binding experiments with original peptides fused to sfGFP; settings: FIG. 17C
Protocol: Individual hinge and sfGFP-fused peptides or 3hb were diluted in 20 mM Tris pH 8, 100 mM NaCl and mixed at approximately 1:1 concentrations. 0.5-1 mL of the resulting samples were injected onto a Superdex™ 200 Increase 10/300 GL columns and the absorbance at 230 nm was used as a readout for binding. For sfGFP-fused peptides, 473 nm was also used as readout. Mixtures were at a total concentration of 2. μM or higher.

Sequence of TAMRA-cs074B (as listed by the source): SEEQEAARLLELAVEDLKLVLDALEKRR

binding in FP titration [1]: not binding
binding in FP titration [2]: not binding
binding in FP titration [3]: specifically binds
binding in FP titration ([4]; 1 nM peptide js007B, varying hinge, FIG. 10): not binding
B1: csw13: cs201-derived hinge redesigned to bind peptide cs221B, SEQ ID NO:17 (protein)
chain: MSGNEEVKKLVEEAKKYLKEAEEYIKKAKKTGNEELLEKALKLLEKALELVKKAIELDPNNKEAIEQAVEIARALNEVAELLIEEAKKTGNEELLEKALEALEAANEALKLAIENNENDKELLAEIAVELAEVGVLLAEVLIEEAKKTGDPELLKLALEVLEAAVEALELALKLDPNNEEAVELAEEAAKLLEEVAKELKEEAKKTGDPELEKLAKEAEELAKRAKELAERQRGSGSHHWGSTHHHHHH

binding in FP titration [1]: most strongly
binding in FP titration [2]: still binds
binding in FP titration [3]: weaker than the new target
B2: csw20: cs201-derived hinge redesigned to bind peptide cs074B, SEQ ID NO:18 (protein)
chain: MSGMEEVKELVEKAEELAKEAEELIKKAKKTGNPELLKEALRKLKEAVELAKEAVELDPEHEEAIELLARLAEKLLEVAKLLIELAKKTGNPELLKEALRALKEAREALRLAAEHAPEDAKLLARLAARLAELALLIAKILIELAKKTGNPELLLKALKVLTLAVEAVEAALEADPRLKEAVRVAKELAEVLKELAKLAKELAKKTGNEELKEAAKEAEEVAKRAEELAREAEGSGSHHWGSTHHHHHH

B3: cs201: designed hinge protein, SEQ ID NO:7 (protein)
chain: MSGDEEVQEAVERAEELREEAEELIKKARKTGDPELLRKALEALKEAVRAVREAIKRNPDNEEAIKTALRLARELRKVAKELIERARKTGDAELLKKALEAARVAVEAVRLAAEYNKENAEKMAELLVELAELAREVADVLIELAEKTGDPELLKKALEVLEEAVEAVRLAIEYDPDHEEAVETAKRLAEELRKVAELLEERAKETGDPELQELAKRAKEVADRARELAKKSNGSGSHHWGSTHHHHHH
kon ([2]; Effector TAMRA-cs201B, method FP): 6700 M⁻¹ s⁻¹

SEC binding experiment with sfGFP-fused original peptide [5]: higher-order peaks
B4: cs230: designed hinge protein, SEQ ID NO:12 (protein)
chain: MSGTKEEKERIERIEKEVRSPDPENILEAVRKALELFRENPSEEAKELLKRAIEAALRSEDERAILEALRAALEAYRQGAGDREGLLEAIRVAIRRAAESEDERAILEAVRAARILLEAERTEEAKELLRVAIERAKKSPDPEAQREAKRAEEELRKEDGSGSHHWGSTHHHHHH

peptide binding ([3]; oxidizing conditions (disulfide formed)): only weak residual binding
peptide binding ([3]; upon addition of reducing agent DTT): fully restored
B5: cs221_lockedX: cs221 variant with disulfide that locks state X, SEQ ID NO:19 (protein)
chain: MSGEMKEEIRRLAEELRERTKDEEVRELAREAARLAEESDDEEVKEVVKKALEAALKSKDEEVIRLLLLAAVCAAAAARSGSPEEKLEIAKKALELAMKSKDEEVIRLALLAAVLACRSDDEEVLKKVKEALEKAMESKDVEEIRERLREAVEVARAGSGSHHWGSTHHHHHH

B6: cs221_A73E: hinge cs221 with point mutation A73E (protein)
chain: MSGEMKEEIRRLAEELRERTKDEEVRELAREAARLAEESDDEEVKEVVKKALEAALKSKDEEVIRLLLLAAVLAAEAARSGSPEEKLEIAKKALELAMKSKDEEVIRLALLAAVLAARSDDEEVLKKVKEALEKAMESKDVEEIRERLREAVEVARAGSGSHHWGSTHHHHHH
kon [3]: 1900 M⁻¹ s⁻¹

B7: cs221_L66T: hinge cs221 with point mutation L66T (protein)
chain: MSGEMKEEIRRLAEELRERTKDEEVRELAREAARLAEESDDEEVKEVVKKALEAALKSKDEEVIRLLLTAAVLAAAAARSGSPEEKLEIAKKALELAMKSKDEEVIRLALLAAVLAARSDDEEVLKKVKEALEKAMESKDVEEIRERLREAVEVARAGSGSHHWGSTHHHHHH
kon [3]: 2700 M⁻¹ s⁻¹

B8: cs221: designed hinge protein, SEQ ID NO:10 (protein)
chain: MSGEMKEEIRRLAEELRERTKDEEVRELAREAARLAEESDDEEVKEVVKKALEAALKSKDEEVIRLLLLAAVLAAAAARSGSPEEKLEIAKKALELAMKSKDEEVIRLALLAAVLAARSDDEEVLKKVKEALEKAMESKDVEEIRERLREAVEVARAGSGSHHWGSTHHHHHH
kon [3]: 3400 M⁻¹ s⁻¹

B9: cs221_V111L_A111T: state Y-stabilizing double mutant of hinge cs221 (protein)
chain: MSGEMKEEIRRLAEELRERTKDEEVRELAREAARLAEESDDEEVKEVVKKALEAALKSKDEEVIRLLLLAAVLAAAAARSGSPEEKLEIAKKALELAMKSKDEEVIRLALLAALLATRSDDEEVLKKVKEALEKAMESKDVEEIRERLREAVEVARAGSGSHHWGSTHHHHHH
kon [3]: 76200 M⁻¹ s⁻¹

B10: cs221_lockedY: cs221 variant with disulfide that locks state Y, SEQ ID NO:20 (protein)
chain: MSGEMKEEIRRLAEELRERTKDEEVRELAREAARLAEESDDEEVKEVVKKALEAALKSKDEEVIRLLLCAAVLAAAAARSGSPEEKLEIAKKALELAMKSKDEEVIRLACLAAVLAARSDDEEVLKKVKEALEKAMESKDVEEIRERLREAVEVARAGSGSHHWGSTHHHHHH
kon [3]: 790000 M⁻¹ s⁻¹

B11: cs221_A114T: hinge cs221 with point mutation A114T (protein)
chain: MSGEMKEEIRRLAEELRERTKDEEVRELAREAARLAEESDDEEVKEVVKKALEAALKSKDEEVIRLLLLAAVLAAAAARSGSPEEKLEIAKKALELAMKSKDEEVIRLALLAAVLATRSDDEEVLKKVKEALEKAMESKDVEEIRERLREAVEVARAGSGSHHWGSTHHHHHH
kon [3]: 27700 M⁻¹ s⁻¹

B12: cs221_V111L: hinge cs221 with point mutation V111L (protein)
chain: MSGEMKEEIRRLAEELRERTKDEEVRELAREAARLAEESDDEEVKEVVKKALEAALKSKDEEVIRLLLLAAVLAAAAARSGSPEEKLEIAKKALELAMKSKDEEVIRLALLAALLAARSDDEEVLKKVKEALEKAMESKDVEEIRERLREAVEVARAGSGSHHWGSTHHHHHH
kon [3]: 24300 M⁻¹ s⁻¹

B13: js007: designed hinge protein, SEQ ID NO:11 (protein)
chain: MSGSEEVNERVKQLAEKAKEATDKEEVIEIVKELAELAKQSTDPNLVAEVVRALTEVAKTSTDTELIQEIVKVLLELARRLTDPQLLLEVLKSIAELLKELAEKTGNETAKLAALVAQIAAEVVEMALRAEKTHPGSEIVKLAVELVQKVAEIVLIAAQLMLDKPNSDEVRKVLKEVEKVAREALKALREAKRHPDSQKARDEIKEASQKAEEVKERIERAQEGSGSHHWGSTHHHHHH
kon ([4]; Effector TAMRA-js007B, method FP): 78000 M⁻¹ s⁻¹
